{
  "source": "patent US20130266574A1",
  "about": "(Regeneron, published 2013)",
  "binders": {"B1": {"name": "H1H292P (antibody, V domains shown)", "VH": "EVQLVESGGGLVQPGGSLRLSCVASGFTFSSYDMHWVRQLPGKGLEWVSAIGVAGDTYYPASVKGRFTISRENAKNSLYLQMNSLRAGDTAVYYCARGDSGNYYDGDYFDFWGQGTLVTVSS", "VL": "DIQMTQSPSTLSASVGDRVTITCRASQSINRWLAWYQQKPGKAPKVLIYKASNLESGVPSRFSGSGSGTEFTLTISSLQPDDFATYYCQQYDSYFRTFGQGTKVEIK", "notes": "Fully human antibody, H1H prefix (human IgG1)"}, "B2": {"name": "H1H624P (antibody, V domains shown)", "VH": "EVQLVESGGGLVQPGGSLRLSCAASEFIFSSYAMNWVRQAPGKGLEWVSVISGSGDSKYYADSVKGRFTISRDNSKNTLYLQMNSLRVEDTAVYYCAKDGKDRYGFYYNFYGMDVWGQGTTVTVS", "VL": "DIQMTQSPSFLSASVGDRVTITCWASQGISSYLAWYQQKPGKAPKILIYAASTLQSGVPSRFSASGSGTEFTLTISSLQPEDFATYHCQQLNSYPFTFGPGTKVDIK", "notes": "as for B1"}, "B3": {"name": "H1H653P (antibody, V domains shown)", "VH": "QVQLVESGGGVVQPGRSLRLSCVASGFTFSSYGMHWVRQAPGKGLEWMAVIWYDGSNKYFADSVKDRFTISRDNSKNTLYLQMNTLRPDDTAVYYCVKADAPLLIYGVDVWGQGTTVTVS", "VL": "DIQMTQSPSSLSASVGDRVTITCRASQGIRNDLGWYQEKPGKAPKRLIYFASSLQSGVPSRFSGSGSGTEFTLTISSLQPEDFATYYCLQHNSYPYTFGQGTKLEIK", "notes": "as for B1"}, "B4": {"name": "H1H283P (antibody, V domains shown)", "VH": "B1 VH with V23A, L40V, P41A, V53T, A61V, Q81H, Y94F, G101R, D105V, F111Y", "VL": "B1 VL with N30S, D92N, F95S", "notes": "as for B1"}, "B5": {"name": "H1H257P (antibody, V domains shown)", "VH": "B1 VH with V23A, L40V, P41A, V53T, A61V, Q81H, Y94F, G101R, D105V, F111Y", "VL": "B1 VL with N30S, K50Q, F95S, T97A, Q100R", "notes": "Fully human antibody; the H1H prefix stands for human IgG1 (said outright only for H1H268P and H1H284P)"}, "B6": {"name": "H1H638P (antibody, V domains shown)", "VH": "B1 VH with L40V, P41A, S49A, V53T, A61V, Y79S, Q81H, G101R, D105V, F111Y", "VL": "B1 VL with N30S, N53S, E55K, P80S, D92N, F95S", "notes": "as for B1"}, "B7": {"name": "H1H644P (antibody, V domains shown)", "VH": "B1 VH with V23A, L40V, P41A, V53T, A61V, Q81H, G101R, D105V, F111Y", "VL": "B1 VL with N30S, D92N, S93T, F95S", "notes": "as for B1"}, "B8": {"name": "H1H285P (antibody, V domains shown)", "VH": "EVQLVESGGGLVQPGGSLRLSCAASGFTFSRYDMHWVRQVTGKGLEWVSGIGTAGDTYYPGSVKGRFTISRENDKNSLYLQMNSLRVGDTAVYYCARGDSKNYYVGDYFDYWGQGTLVTVSS", "VL": "B1 VL with I21F, Q27H, N30G, R31N, K50E, N53S, S56D, S93T", "notes": "as for B1"}, "B9": {"name": "H1H291P (antibody, V domains shown)", "VH": "EVQLVESGGGLVQPGGSLRLSCAASGFTFSTYDMHWVRQGLGKGLEWVSAIGSAGDTYYPGSVKGRFTISRDNAKSSLFLHMNSLRAGDTALYYCARGDSRNYFVGDYFDYWGQGTLVTVSS", "VL": "B1 VL with V15I, N30S, R31S, N53S, S56A, T85S, D92S, F95S", "notes": "as for B1"}, "B10": {"name": "H1H295P (antibody, V domains shown)", "VH": "B9 VH with G40A, L41P, H81Q", "VL": "B1 VL with N30G, R31T, V46I, N53S, S56G, T85N, D92N, Y94F, F95Y", "notes": "as for B1"}, "B11": {"name": "H4H268P2 (antibody, human IgG4 S228P, V domains shown)", "VH": "QVQLQQSGAGLLKPSETLSLTCTVYGGSFSIHHWTWIRHPPGKGLEWIGEINHRGSTNYNPSLKSRVTISIDTSKNQFSLKLSAVTAADTAVYYCARGLRFLDWLSSYFDYWGQGTLVTVSS", "VL": "DIQMTQSPSSLSASVGDRVTITCRASQGISDYLAWYQQKPGKVPNLLIYAASALQSGVPSRFSGSGSGTDFTLTISSLQPEDVATYYCQNYNTAPLTFGGGTKVEIK", "notes": "IgG4 version of H1H268P"}, "B12": {"name": "H4H284P (antibody, human IgG4 S228P, V domains shown)", "VH": "QVQLVESGGGVVQPGRSLRLSCAASGFTFSSYGMHWVRQAPGKGLEWMAVISFDGGNKNNADSVKGRFTISRDNSKNTLYLQMNSLRAEDTAVYYCAKEGDRSGHPYFYYYGLDVWGQGTTVTVSA", "VL": "B2 VL with M4L, I46L, A64G, G68E, H87Y, N92H, F96L, P100G, D105E", "notes": "IgG4 version of H1H284P (constant region replaced)"}, "B13": {"name": "H1H236N2 (antibody, V domains shown)", "VH": "EVQLVESGGGLVQPGRSLRLSCAASGFTFDDYAMHWVRQAPGKGLEWVSGISWNSGSIVYADSVKGRFTISRDNAKNSLYLQMNSLISEDTALYYCAKDESSSSGNWFDPWGQGTLVTVSS", "VL": "EVVMTQSPATLSVSPGERATLSCRASQSVSSNLAWYQQKPGQAPRLLIYGASTRATGIPARFSGSGSGTEFTLTISSLQSEDFAVYYCQEYNNWITFGQGTRLEIK"}},
  "note": "Residue numbers refer to the chain shown, from its start. Numbers in names are those of the source.",
  "data": [
    {"target": "T1, amino acid residues 26-148 of human ANGPTL4 fused in-line to mouse IgG2a (hANGPTL4-mFc) (human)", "T1 construct": "contains the N-terminal coiled-coil region", "T1 chain": "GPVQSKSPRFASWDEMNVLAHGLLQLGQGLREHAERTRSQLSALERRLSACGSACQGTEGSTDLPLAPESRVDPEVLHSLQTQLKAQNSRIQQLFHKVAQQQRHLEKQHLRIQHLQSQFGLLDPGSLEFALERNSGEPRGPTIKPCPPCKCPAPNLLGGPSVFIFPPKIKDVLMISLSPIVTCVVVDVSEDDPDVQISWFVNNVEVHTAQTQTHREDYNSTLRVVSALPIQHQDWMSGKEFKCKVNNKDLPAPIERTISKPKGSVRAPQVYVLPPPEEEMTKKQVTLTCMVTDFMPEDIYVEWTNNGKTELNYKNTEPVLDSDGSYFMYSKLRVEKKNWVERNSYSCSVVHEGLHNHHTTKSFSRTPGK", "test": "SPR (Biacore T100), hANGPTL4-mFc captured by anti-mouse IgG, antibody injected, 37° C.", "experimental": "(§1) Antigen-antibody binding and dissociation were monitored in real time at 25° C. and 37° C. Kinetic analysis was performed to calculate KD and half-life of antigen/antibody complex dissociation.", "units": {"Kd": "pM", "t1/2": "h"}, "values": [
      {"binder": "B1", "Kd": 167, "t1/2": 1.47},
      {"binder": "B2", "Kd": 3710, "t1/2": 0.05},
      {"binder": "B3", "Kd": 2130, "t1/2": 0.1},
      {"binder": "B4", "Kd": 1360, "t1/2": 0.2},
      {"binder": "B5", "Kd": 238, "t1/2": 1.05},
      {"binder": "B6", "Kd": 299, "t1/2": 0.8},
      {"binder": "B7", "Kd": 3000, "t1/2": 0.1},
      {"binder": "B8", "Kd": 194, "t1/2": 1.18},
      {"binder": "B9", "Kd": 178, "t1/2": 2.03},
      {"binder": "B10", "Kd": 2620, "t1/2": 0.167}
    ]},
    {"target": "T1, amino acid residues 26-148 of human …", "test": "SPR (Biacore), pH 7.4, 25° C., protocol of Example 3", "experimental": "as §1\nFurthermore, a single amino acid substitution was introduced in the framework region 1 of H1H268P (SEQ ID NO:42) to form H4H268P2 (SEQ ID NO:487) in the IgG4 version.", "units": {"Kd": "pM", "t1/2": "h"}, "values": [
      {"binder": "B11", "Kd": 146, "t1/2": 3.25},
      {"binder": "B12", "Kd": 143, "t1/2": 3.42}
    ]},
    {"target": "T1, amino acid residues 26-148 of human …", "test": "SPR (Biacore T100), hANGPTL4-mFc captured by anti-mouse IgG, antibody injected, 25° C.", "experimental": "as §1", "units": {"Kd": "pM", "t1/2": "h"}, "values": [
      {"binder": "B1", "Kd": 136, "t1/2": 1.87},
      {"binder": "B2", "Kd": 1190, "t1/2": 0.117},
      {"binder": "B3", "Kd": 411, "t1/2": 0.717},
      {"binder": "B4", "Kd": 130, "t1/2": 1.98},
      {"binder": "B5", "Kd": 201, "t1/2": 1.52},
      {"binder": "B6", "Kd": 193, "t1/2": 1.42},
      {"binder": "B7", "Kd": 111, "t1/2": 2.4},
      {"binder": "B8", "Kd": 92.5, "t1/2": 2.6},
      {"binder": "B9", "Kd": 87.6, "t1/2": 5.05},
      {"binder": "B10", "Kd": 30.7, "t1/2": 14.6}
    ]},
    {"target": "T1, amino acid residues 26-148 of human …", "test": "cell-based or functional assay", "units": {"% Inhibition of hANGPTL4 Activity (LPL lipase test), hANGPTL4-mFc (2 nM)": "%"}, "values": [
      {"binder": "B13", "% Inhibition of hANGPTL4 Activity (LPL lipase test), hANGPTL4-mFc (2 nM)": 13},
      {"binder": "B1", "% Inhibition of hANGPTL4 Activity (LPL lipase test), hANGPTL4-mFc (2 nM)": 20},
      {"binder": "B2", "% Inhibition of hANGPTL4 Activity (LPL lipase test), hANGPTL4-mFc (2 nM)": 62},
      {"binder": "B3", "% Inhibition of hANGPTL4 Activity (LPL lipase test), hANGPTL4-mFc (2 nM)": 55},
      {"binder": "B5", "% Inhibition of hANGPTL4 Activity (LPL lipase test), hANGPTL4-mFc (2 nM)": 16},
      {"binder": "B8", "% Inhibition of hANGPTL4 Activity (LPL lipase test), hANGPTL4-mFc (2 nM)": 28}
    ]},
    {"target": "T2, full-length hANGPTL4 (amino acid residues 26-406 of SEQ ID NO:476) with a C-terminal hexa-histidine tag (human, UniProt Q9BY76 26-406)", "T2 sequence": "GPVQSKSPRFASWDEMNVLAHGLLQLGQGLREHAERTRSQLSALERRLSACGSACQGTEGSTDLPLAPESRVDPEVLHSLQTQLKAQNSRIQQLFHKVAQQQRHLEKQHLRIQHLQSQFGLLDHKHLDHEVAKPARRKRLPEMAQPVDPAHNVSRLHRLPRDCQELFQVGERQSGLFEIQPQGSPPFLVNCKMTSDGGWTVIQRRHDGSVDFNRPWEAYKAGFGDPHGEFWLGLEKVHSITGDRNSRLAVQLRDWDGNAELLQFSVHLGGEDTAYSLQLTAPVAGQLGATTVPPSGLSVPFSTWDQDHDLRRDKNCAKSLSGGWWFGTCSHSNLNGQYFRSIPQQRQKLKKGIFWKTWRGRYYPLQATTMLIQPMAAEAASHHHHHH", "test": "cell-based or functional assay", "units": {"% Inhibition of hANGPTL4 Activity (LPL lipase test), hANGPTL4-His (10 nM)": "%"}, "values": [
      {"binder": "B13", "% Inhibition of hANGPTL4 Activity (LPL lipase test), hANGPTL4-His (10 nM)": 19},
      {"binder": "B1", "% Inhibition of hANGPTL4 Activity (LPL lipase test), hANGPTL4-His (10 nM)": 53},
      {"binder": "B2", "% Inhibition of hANGPTL4 Activity (LPL lipase test), hANGPTL4-His (10 nM)": 48},
      {"binder": "B3", "% Inhibition of hANGPTL4 Activity (LPL lipase test), hANGPTL4-His (10 nM)": 48},
      {"binder": "B8", "% Inhibition of hANGPTL4 Activity (LPL lipase test), hANGPTL4-His (10 nM)": 47}
    ]},
    {"target": "T1, amino acid residues 26-148 of human …", "test": "cell-based or functional assay", "remark": "another data set of the same source", "units": {"IC50 (nM) in the LPL inhibition assay, constant ANGPTL4 2 nM": "nM"}, "values": [
      {"binder": "B11", "IC50 (nM) in the LPL inhibition assay, constant ANGPTL4 2 nM": 1.85},
      {"binder": "B12", "IC50 (nM) in the LPL inhibition assay, constant ANGPTL4 2 nM": 1.69}
    ]},
    {"target": "T2, full-length hANGPTL4 (amino acid …)", "test": "cell-based or functional assay", "remark": "another data set of the same source", "units": {"IC50 (nM) in the LPL inhibition assay, constant ANGPTL4 10 nM": "nM"}, "values": [
      {"binder": "B11", "IC50 (nM) in the LPL inhibition assay, constant ANGPTL4 10 nM": 1.61},
      {"binder": "B12", "IC50 (nM) in the LPL inhibition assay, constant ANGPTL4 10 nM": 1.19}
    ]}
  ]
}
